Experimental data published in patent US20230293638A1 (Eli Lilly, published 2023).
Numbering of substitutions follows the chain as printed. Numbered stars: 1 amine (or outer) side, 2 acyl side, 3 side chain; on linkers, the order of the positions; unused ones are H or OH. Square brackets hold non-standard residues; d marks the D form. Side chains are listed from the residue outwards. Ends that are not written are not given here. * marks the point of attachment. C20 diacid = O=C(O)CCCCCCCCCCCCCCCCCCC(=O)*; C18 diacid = O=C(O)CCCCCCCCCCCCCCCCC(=O)*; αMePhe(2-F) = C[C@](N)(Cc1ccccc1F)C(=O)O; γGlu = O=C(O)[C@H](CCC(=O)[*:2])N[*:1]; αMeL = CC(C)C[C@](C)(N)C(=O)O; αMeK = C[C@](N)(CCCCN)C(=O)O; AEEA = NCCOCCOCC(=O)O; Aib = CC(C)(N)C(=O)O

B1: Peptide 180 (peptide)
peptide: Y[Aib]EGT[αMePhe(2-F)]TSDHSI[αMeL]LDEK([AEEA-AEEA-γGlu-C18 diacid])AQ[Aib]HFI[dE]YLIEGG-NH2
modifications: N-terminus assumed
SMILES: CC[C@H](C)[C@H](NC(=O)[C@H](CC(C)C)NC(=O)[C@H](Cc1ccc(O)cc1)NC(=O)[C@@H](CCC(=O)O)NC(=O)[C@@H](NC(=O)[C@H](Cc1ccccc1)NC(=O)[C@H](Cc1c[nH]cn1)NC(=O)C(C)(C)NC(=O)[C@H](CCC(N)=O)NC(=O)[C@H](C)NC(=O)[C@H](CCCCNC(=O)COCCOCCNC(=O)COCCOCCNC(=O)CC[C@H](NC(=O)CCCCCCCCCCCCCCCCC(=O)O)C(=O)O)NC(=O)[C@H](CCC(=O)O)NC(=O)[C@H](CC(=O)O)NC(=O)[C@H](CC(C)C)NC(=O)[C@](C)(CC(C)C)NC(=O)[C@@H](NC(=O)[C@H](CO)NC(=O)[C@H](Cc1c[nH]cn1)NC(=O)[C@H](CC(=O)O)NC(=O)[C@H](CO)NC(=O)[C@@H](NC(=O)[C@](C)(Cc1ccccc1F)NC(=O)[C@@H](NC(=O)CNC(=O)[C@H](CCC(=O)O)NC(=O)C(C)(C)NC(=O)[C@@H](N)Cc1ccc(O)cc1)[C@@H](C)O)[C@@H](C)O)[C@@H](C)CC)[C@@H](C)CC)C(=O)N[C@@H](CCC(=O)O)C(=O)NCC(=O)NCC(N)=O
B2: Peptide 22 (peptide)
peptide: Y[Aib]EGTFTSDYSI[αMeL]LDEK([AEEA-AEEA-γGlu-C20 diacid])AQ[αMeK]AFIEYLLE[Aib]GPSSGAPPPS-NH2
modifications: N-terminus assumed
SMILES: CC[C@H](C)[C@H](NC(=O)[C@H](Cc1ccccc1)NC(=O)[C@H](C)NC(=O)[C@](C)(CCCCN)NC(=O)[C@H](CCC(N)=O)NC(=O)[C@H](C)NC(=O)[C@H](CCCCNC(=O)COCCOCCNC(=O)COCCOCCNC(=O)CC[C@H](NC(=O)CCCCCCCCCCCCCCCCCCC(=O)O)C(=O)O)NC(=O)[C@H](CCC(=O)O)NC(=O)[C@H](CC(=O)O)NC(=O)[C@H](CC(C)C)NC(=O)[C@](C)(CC(C)C)NC(=O)[C@@H](NC(=O)[C@H](CO)NC(=O)[C@H](Cc1ccc(O)cc1)NC(=O)[C@H](CC(=O)O)NC(=O)[C@H](CO)NC(=O)[C@@H](NC(=O)[C@H](Cc1ccccc1)NC(=O)[C@@H](NC(=O)CNC(=O)[C@H](CCC(=O)O)NC(=O)C(C)(C)NC(=O)[C@@H](N)Cc1ccc(O)cc1)[C@@H](C)O)[C@@H](C)O)[C@@H](C)CC)C(=O)N[C@@H](CCC(=O)O)C(=O)N[C@@H](Cc1ccc(O)cc1)C(=O)N[C@@H](CC(C)C)C(=O)N[C@@H](CC(C)C)C(=O)N[C@@H](CCC(=O)O)C(=O)NC(C)(C)C(=O)NCC(=O)N1CCC[C@H]1C(=O)N[C@@H](CO)C(=O)N[C@@H](CO)C(=O)NCC(=O)N[C@@H](C)C(=O)N1CCC[C@H]1C(=O)N1CCC[C@H]1C(=O)N1CCC[C@H]1C(=O)N[C@@H](CO)C(N)=O
B3: Peptide 179 (peptide)
peptide: Y[Aib]EGT[αMePhe(2-F)]TSDHSI[αMeL]LDEK([AEEA-AEEA-γGlu-C18 diacid])AQ[Aib]HFI[dE]YLIEGGPSSG-NH2
modifications: N-terminus assumed
SMILES: CC[C@H](C)[C@H](NC(=O)[C@H](CC(C)C)NC(=O)[C@H](Cc1ccc(O)cc1)NC(=O)[C@@H](CCC(=O)O)NC(=O)[C@@H](NC(=O)[C@H](Cc1ccccc1)NC(=O)[C@H](Cc1c[nH]cn1)NC(=O)C(C)(C)NC(=O)[C@H](CCC(N)=O)NC(=O)[C@H](C)NC(=O)[C@H](CCCCNC(=O)COCCOCCNC(=O)COCCOCCNC(=O)CC[C@H](NC(=O)CCCCCCCCCCCCCCCCC(=O)O)C(=O)O)NC(=O)[C@H](CCC(=O)O)NC(=O)[C@H](CC(=O)O)NC(=O)[C@H](CC(C)C)NC(=O)[C@](C)(CC(C)C)NC(=O)[C@@H](NC(=O)[C@H](CO)NC(=O)[C@H](Cc1c[nH]cn1)NC(=O)[C@H](CC(=O)O)NC(=O)[C@H](CO)NC(=O)[C@@H](NC(=O)[C@](C)(Cc1ccccc1F)NC(=O)[C@@H](NC(=O)CNC(=O)[C@H](CCC(=O)O)NC(=O)C(C)(C)NC(=O)[C@@H](N)Cc1ccc(O)cc1)[C@@H](C)O)[C@@H](C)O)[C@@H](C)CC)[C@@H](C)CC)C(=O)N[C@@H](CCC(=O)O)C(=O)NCC(=O)NCC(=O)N1CCC[C@H]1C(=O)N[C@@H](CO)C(=O)N[C@@H](CO)C(=O)NCC(N)=O
B4: Peptide 167 (peptide)
peptide: Y[Aib]EGT[αMePhe(2-F)]TSDHSI[αMeL]LDEK([AEEA-AEEA-γGlu-C20 diacid])AQ[Aib]TFI[dE]YLIEGGPSSG-NH2
modifications: N-terminus assumed
SMILES: CC[C@H](C)[C@H](NC(=O)[C@H](CC(C)C)NC(=O)[C@H](Cc1ccc(O)cc1)NC(=O)[C@@H](CCC(=O)O)NC(=O)[C@@H](NC(=O)[C@H](Cc1ccccc1)NC(=O)[C@@H](NC(=O)C(C)(C)NC(=O)[C@H](CCC(N)=O)NC(=O)[C@H](C)NC(=O)[C@H](CCCCNC(=O)COCCOCCNC(=O)COCCOCCNC(=O)CC[C@H](NC(=O)CCCCCCCCCCCCCCCCCCC(=O)O)C(=O)O)NC(=O)[C@H](CCC(=O)O)NC(=O)[C@H](CC(=O)O)NC(=O)[C@H](CC(C)C)NC(=O)[C@](C)(CC(C)C)NC(=O)[C@@H](NC(=O)[C@H](CO)NC(=O)[C@H](Cc1c[nH]cn1)NC(=O)[C@H](CC(=O)O)NC(=O)[C@H](CO)NC(=O)[C@@H](NC(=O)[C@](C)(Cc1ccccc1F)NC(=O)[C@@H](NC(=O)CNC(=O)[C@H](CCC(=O)O)NC(=O)C(C)(C)NC(=O)[C@@H](N)Cc1ccc(O)cc1)[C@@H](C)O)[C@@H](C)O)[C@@H](C)CC)[C@@H](C)O)[C@@H](C)CC)C(=O)N[C@@H](CCC(=O)O)C(=O)NCC(=O)NCC(=O)N1CCC[C@H]1C(=O)N[C@@H](CO)C(=O)N[C@@H](CO)C(=O)NCC(N)=O
B5: Peptide 21 (peptide)
peptide: Y[Aib]EGTFTSDYSI[αMeL]LDEK([AEEA-AEEA-γGlu-C20 diacid])AQ[αMeK]AFIEYLLEGGPSSGAPPPS-NH2
modifications: N-terminus assumed
SMILES: CC[C@H](C)[C@H](NC(=O)[C@H](Cc1ccccc1)NC(=O)[C@H](C)NC(=O)[C@](C)(CCCCN)NC(=O)[C@H](CCC(N)=O)NC(=O)[C@H](C)NC(=O)[C@H](CCCCNC(=O)COCCOCCNC(=O)COCCOCCNC(=O)CC[C@H](NC(=O)CCCCCCCCCCCCCCCCCCC(=O)O)C(=O)O)NC(=O)[C@H](CCC(=O)O)NC(=O)[C@H](CC(=O)O)NC(=O)[C@H](CC(C)C)NC(=O)[C@](C)(CC(C)C)NC(=O)[C@@H](NC(=O)[C@H](CO)NC(=O)[C@H](Cc1ccc(O)cc1)NC(=O)[C@H](CC(=O)O)NC(=O)[C@H](CO)NC(=O)[C@@H](NC(=O)[C@H](Cc1ccccc1)NC(=O)[C@@H](NC(=O)CNC(=O)[C@H](CCC(=O)O)NC(=O)C(C)(C)NC(=O)[C@@H](N)Cc1ccc(O)cc1)[C@@H](C)O)[C@@H](C)O)[C@@H](C)CC)C(=O)N[C@@H](CCC(=O)O)C(=O)N[C@@H](Cc1ccc(O)cc1)C(=O)N[C@@H](CC(C)C)C(=O)N[C@@H](CC(C)C)C(=O)N[C@@H](CCC(=O)O)C(=O)NCC(=O)NCC(=O)N1CCC[C@H]1C(=O)N[C@@H](CO)C(=O)N[C@@H](CO)C(=O)NCC(=O)N[C@@H](C)C(=O)N1CCC[C@H]1C(=O)N1CCC[C@H]1C(=O)N1CCC[C@H]1C(=O)N[C@@H](CO)C(N)=O
B6: Peptide 157 (peptide)
peptide: YXEGTXTSDXSIXLDEKAQXEFIEYLIEGGPSSGAPPPS
modifications: Aib2; αMeF(2F)6; 3Pal10; αMeL13; K17((2-[2-(2-Amino-ethoxy)-ethoxy]-acetyl)2-(γGlu)-CO-(CH2)18-CO2H); Aib20; C-terminal NH2
B7: Peptide 182 (peptide)
peptide: B6 peptide with E24X
modifications: Aib2; αMeF(2F)6; 4Pal10; αMeL13; K17((2-[2-(2-Amino-ethoxy)-ethoxy]-acetyl)2-(γGlu)-CO-(CH2)18-CO2H); Aib20; D-Glu24; C-terminal NH2
B8: Peptide 173 (peptide)
peptide: B6 peptide with X10H, E16X, E21T, E24X
modifications: Aib2; αMeF(2F)6; αMeL13; Dap16; K17((2-[2-(2-Amino-ethoxy)-ethoxy]-acetyl)2-(γGlu)-CO-(CH2)18-CO2H); Aib20; D-Glu24; C-terminal NH2
B9: Peptide 168 (peptide)
peptide: B6 peptide with X10H, E21T, E24X
modifications: Aib2; αMeF(2F)6; αMeL13; K17((2-[2-(2-Amino-ethoxy)-ethoxy]-acetyl)2-(γGlu)-CO-(CH2)18-CO2H); Aib20; D-Glu24; C-terminal NH2
B10: Peptide 183 (peptide)
peptide: B6 peptide with X10L, E24X
modifications: Aib2; αMeF(2F)6; αMeL13; K17((2-[2-(2-Amino-ethoxy)-ethoxy]-acetyl)2-(γGlu)-CO-(CH2)18-CO2H); Aib20; D-Glu24; C-terminal NH2
B11: Peptide 178 (peptide)
peptide: B6 peptide with X10H, E21H, E24X
modifications: Aib2; αMeF(2F)6; αMeL13; K17((2-[2-(2-Amino-ethoxy)-ethoxy]-acetyl)2-(γGlu)-CO-(CH2)14-CO2H); Aib20; D-Glu24; C-terminal NH2
B12: Peptide 176 (peptide)
peptide: B6 peptide with X10H, E21T, E24X
modifications: Aib2; αMeF(2F)6; αMeL13; K17((2-[2-(2-Amino-ethoxy)-ethoxy]-acetyl)2-(εK)-CO-(CH2)16-CO2H); Aib20; D-Glu24; C-terminal NH2
B13: Peptide 174 (peptide)
peptide: B6 peptide with X10H, E21T, E24X
modifications: Aib2; αMeF(2F)6; αMeL13; K17((2-[2-(2-Amino-ethoxy)-ethoxy]-acetyl)2-CO-(CH2)18-CO2H); Aib20; D-Glu24; C-terminal NH2
B14: Peptide 187 (peptide)
peptide: B6 peptide with X10Q, E24X
modifications: Aib2; αMeF(2F)6; αMeL13; K17((2-[2-(2-Amino-ethoxy)-ethoxy]-acetyl)2-(γGlu)-CO-(CH2)18-CO2H); Aib20; D-Glu24; C-terminal NH2
B15: Peptide 171 (peptide)
peptide: B6 peptide with X10H, E16X, E21T, E24X
modifications: Aib2; αMeF(2F)6; αMeL13; Orn16; K17((2-[2-(2-Amino-ethoxy)-ethoxy]-acetyl)2-(γGlu)-CO-(CH2)18-CO2H); Aib20; D-Glu24; C-terminal NH2
B16: Peptide 189 (peptide)
peptide: B6 peptide with E24X
modifications: Aib2; αMeF(2F)6; 4Pal10; αMeL13; K17((2-[2-(2-Amino-ethoxy)-ethoxy]-acetyl)2-(γGlu)-CO-(CH2)18-CO2H); Aib20; Aib24; C-terminal NH2
B17: Peptide 169 (peptide)
peptide: B6 peptide with X10H, E21T, E24X
modifications: Aib2; αMeF(2F)6; αMeL13; K17((2-[2-(2-Amino-ethoxy)-ethoxy]-acetyl)2-(γGlu)-CO-(CH2)16-CO2H); Aib20; D-Glu24; C-terminal NH2
B18: Peptide 181 (peptide)
peptide: B6 peptide with E24X
modifications: Aib2; αMeF(2F)6; 3Pal10; αMeL13; K17((2-[2-(2-Amino-ethoxy)-ethoxy]-acetyl)2-(γGlu)-CO-(CH2)18-CO2H); Aib20; D-Glu24; C-terminal NH2
B19: Peptide 172 (peptide)
peptide: B6 peptide with X10H, E16X, E21T, E24X
modifications: Aib2; αMeF(2F)6; αMeL13; Dab16; K17((2-[2-(2-Amino-ethoxy)-ethoxy]-acetyl)2-(γGlu)-CO-(CH2)18-CO2H); Aib20; D-Glu24; C-terminal NH2

Molecular target: human GLP-1 receptor (human, UniProt P43220 24-463)
Test: cell-based or functional assay

| Binder | hGLPIR cAMP EC50 ratio |
| --- | --- |
| B1 | 0.0212 |
| B2 | 0.29 |
| B3 | 0.0169 |
| B4 | 0.0487 |
| B5 | 0.402 |
| B6 | 1.25 |
| B7 | 0.873 |
| B8 | 0.0373 |
| B9 | 0.0323 |
| B10 | 0.843 |
| B11 | 0.00349 |
| B12 | 0.0427 |
| B13 | 0.0968 |
| B14 | 0.702 |
| B15 | 0.0609 |
| B16 | 0.668 |
| B17 | 0.0136 |
| B18 | 0.718 |
| B19 | 0.038 |
